In US20230106715A1 (BIOSION, published 2023) one finds EC50 and IC50 data, which are given here for eight molecules.

Experiment [1] deals with T1, cynomolgus monkey Siglec15-his protein (cynomolgus monkey).
T1 construct: In house made; also called Cynomolgus Siglec15-his; cynomolgus Siglec15
T1 chain: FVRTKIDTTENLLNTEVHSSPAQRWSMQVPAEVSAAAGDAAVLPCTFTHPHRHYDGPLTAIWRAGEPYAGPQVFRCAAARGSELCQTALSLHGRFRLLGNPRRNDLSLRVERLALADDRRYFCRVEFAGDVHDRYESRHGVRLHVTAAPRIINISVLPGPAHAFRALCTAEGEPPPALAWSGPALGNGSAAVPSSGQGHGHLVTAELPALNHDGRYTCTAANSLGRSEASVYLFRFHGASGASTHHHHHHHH
Briefly: indirect ELISA on coated cynomolgus Siglec15-his. The method, then: The anti-Siglec15 antibodies' cross-reactions to cynomolgus or mouse Siglec15 proteins were measured. Briefly, 96-well micro plates were coated with 100 μl of 2 μg/ml cynomolgus Siglec15-his protein (in house made with SEQ ID NO: 21), or 2 μg/ml mouse Siglec15-his protein (in house made with SEQ ID NO: 22) in carbonate/bicarbonate buffer (pH 9.6) for 2 hours at 37° C. ELISA plates were washed once with wash buffer (PBS+0.05% v/v Tween-20, PBST) and then blocked with 200 μl/well blocking buffer (5% w/v non-fatty milk in PBST) overnight at 4° C. Plates were washed 4 times and incubated with 100 μl serially diluted anti-Siglec15 antibodies of the disclosure or controls (starting at 66.7 nM, 5-fold serial dilution in PBST with 2.5% w/v non-fatty milk) for 40 minutes at 37° C. ELISA plates were washed 4 times again and incubated with Peroxidase AffiniPure Goat Anti-Human IgG, F(ab)₂ fragment specific (1:5000 dilution in PBST buffer, Jackson Immunoresearch, Cat #109-035-097, 100 μl/well) for 40 minutes at 37° C. After a final wash, plates were incubated with 100 μl/well TMB (Innoreagents, Cat #TMB-S-002). The reaction was stopped 4 minutes later at room temperature with 50 μl 1M H₂SO₄, and the absorbance of each well was read on a microplate reader using dual wavelength mode with 450 nm for TMB and 630 nm as the reference wavelength, then the OD (450-630) values were plotted against antibody concentration. Data was analyzed using Graphpad Prism software and EC₅₀ values were reported.
Background: ELISA stands for enzyme-linked immunosorbent assay.

Experiment [2] addresses T2, human Siglec15-Fc protein (human).
T2 construct: In house made; also called recombinant human Siglec15 protein with human IgG1 Fc at the C-terminus
The experiment in a line: competitive ELISA: coated human Siglec15-Fc, blocked ligand biotin-labeled human LRRC4C-Fc. As for the experimental part:
(§1) Serially diluted anti-Siglec15 antibodies or the controls (starting at 66.67 nM with a 5-fold serial dilution) in PBST with 2.5% w/v non-fatty milk were added to the Siglec15-Fc bound plates, 100 μl per well, and incubated with the human Siglec15-Fc protein at 37° C. for 40 minutes. Plates were washed 4 times again using wash buffer, then added and incubated for 40 minutes at 37° C. with 100 μl/well 290 ng/ml biotin-labeled human LRRC4C-Fc protein (prepared in-house with SEQ ID NO: 23). Plates were washed again using wash buffer. Thereafter, the plates were added with 100 μl/well streptavidin conjugated HRP (1:5000 dilution in PBST buffer, Jackson Immunoresearch, Cat #016-030-084) and incubated for 40 minutes at 37° C. Plates were washed again using wash buffer. Finally, TMB was added and the reaction was stopped using 1M H₂SO₄, and the absorbance of each well was read on a microplate reader using dual wavelength mode with 450 nm for TMB and 630 nm as the reference wavelength, then the OD (450-630) values were plotted against antibody concentration. Data was analyzed using Graphpad Prism software and IC₅₀ values were reported.

The target of experiment [3] is T2, human Siglec15-Fc protein. The description is as above. As for the experimental part:
as §1
This is another data set of the same source.
Target sequence in this assay (chain, as listed by the source limits assumed): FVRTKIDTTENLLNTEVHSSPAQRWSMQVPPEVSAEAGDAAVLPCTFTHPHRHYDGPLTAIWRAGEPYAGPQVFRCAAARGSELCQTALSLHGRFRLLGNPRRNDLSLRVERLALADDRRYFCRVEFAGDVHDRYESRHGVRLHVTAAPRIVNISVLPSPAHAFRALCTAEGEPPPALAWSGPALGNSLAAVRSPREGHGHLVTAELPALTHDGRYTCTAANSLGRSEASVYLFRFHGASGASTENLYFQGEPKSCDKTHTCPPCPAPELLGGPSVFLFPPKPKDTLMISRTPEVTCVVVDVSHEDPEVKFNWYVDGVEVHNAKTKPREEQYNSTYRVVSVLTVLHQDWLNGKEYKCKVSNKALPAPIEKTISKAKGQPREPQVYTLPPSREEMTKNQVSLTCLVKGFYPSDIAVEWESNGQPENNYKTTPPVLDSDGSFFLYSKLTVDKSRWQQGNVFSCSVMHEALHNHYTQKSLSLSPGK

Experiment [4] deals with T3, human Siglec15 on human-siglec15-2D3-1E1 cells (human, UniProt Q6ZMC9 20-328).
T3 construct: whole, on cells; Transfected HEK-293 cells; also called cell surface human Siglec15
T3 sequence (looked up): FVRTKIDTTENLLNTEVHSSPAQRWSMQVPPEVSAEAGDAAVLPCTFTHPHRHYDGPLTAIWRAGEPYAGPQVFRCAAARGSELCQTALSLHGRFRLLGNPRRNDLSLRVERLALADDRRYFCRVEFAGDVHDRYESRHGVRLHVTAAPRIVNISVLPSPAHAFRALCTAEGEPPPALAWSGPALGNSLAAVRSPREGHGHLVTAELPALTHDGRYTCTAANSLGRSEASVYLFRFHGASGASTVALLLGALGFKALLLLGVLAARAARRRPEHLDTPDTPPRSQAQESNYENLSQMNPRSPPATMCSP
Briefly: cell based binding FACS on human-siglec15-2D3-1E1 cells. As for the experimental part: The binding activities of the anti-Siglec15 antibodies to cell surface Siglec15 were tested by flow cytometry (FACS), using in-house prepared human-siglec15-2D3-1E1 cells expressing human Siglec15 (amino acid residues Met1-Pro328 of uniprot #Q6ZMC9) on cell membranes. The human-siglec15-2D3-1E1 cells were prepared by transfecting HEK-293 cells (ATCC #CRL-1573) with pCMV-T-P plasmids inserted with human Siglec15 coding sequence between EcoRI and XbaI sites, following the instruction of lipofectamine 3000 transfection reagent (Thermo Fisher). The human-siglec15-2D3-1E1 cells were harvested from cell culture flasks, washed twice and re-suspended in phosphate buffered saline (PBS) containing 2% v/v Fetal Bovine Serum (FACS buffer). 2×10⁵ cells per well in 96 well-plates were incubated in 100 μL serially diluted anti-Siglec15 antibodies or controls (starting at 66.67 nM, 5-fold serial dilution) in FACS buffer for 40 minutes on ice. […] Following a 40-minute incubation at 4° C. in dark, cells were washed three times and re-suspended in FACS buffer. Fluorescence was measured using a Becton Dickinson FACS Canto II-HTS equipment. Data was analyzed using Graphpad Prism software and EC₅₀ values were reported.

Read-outs that look alike come from different tables or passages of the source.

B1: A2A5C7E8 (antibody, V domains shown)
VH: EVQLVQSGAEVKKPGESLRISCKGSGYSFTTYWISWVRQMPGKGLEWMGLIDPSDSYTNYSPSFQGHVTISTDKSISTAYLQWSSLKASDTAMYYCARGGYYGSEEDYWGQGTLVTVSS
VL: EIVLTQSPGTLSLSPGERATLSCRASQSVSSSRLAWFQQKSGQAPRLLIFDASSRATGIPDRFSGSGSGTDFTLTISRLEPEDFAVYYCQQYGSSPRTFGQGTKVEFK
notes: Fully human antibody from transgenic mouse hybridoma; also called A2A5C7E8-1
As a reminder, the EC50 is the midpoint of the concentration-response curve. As a reminder, the IC50 is the concentration at which inhibition is half-maximal. In turn, B1 yielded a half-maximal effective concentration (EC50) in experiment [1] of 0.136 nM. In addition, the IC50 in experiment [2] is 0.84 nM; in experiment [3], 0.394 nM.

B2: A2A5C7E8-2 (antibody, human IgG1, kappa, V domains shown)
VH: EVQLVQSGAEVKKPGESLRISCKGSGYSFTTYWISWVRQMPGKGLEWMGLIDPSESYTNYSPSFQGHVTISTDKSISTAYLQWSSLKASDTAMYYCARGGYYGSEEDYWGQGTLVTVSS
VL: EIVLTQSPGTLSLSPGERATLSCRASQSVSSSRLAWFQQKSGQAPRLLIFDASSRATGIPDRFSGSGSGTDFTLTISRLEPEDFAVYYCQQYGSSPRTFGQGTKVEFKR
notes: Variant of A2A5C7E8 modified in VH CDR2 (X1 = E)
On to B2, for which the EC50 in experiment [1] came out at 0.15 nM. In experiment [3], the IC50 came to 0.446 nM.

B3: A2A5C7E8-3 (antibody, human IgG1, kappa, V domains shown)
VH: EVQLVQSGAEVKKPGESLRISCKGSGYSFTTYWISWVRQMPGKGLEWMGLIDPSDSYTNYSPSFKGHVTISTDKSISTAYLQWSSLKASDTAMYYCARGGYYGSEEDYWGQGTLVTVSS
VL: EIVLTQSPGTLSLSPGERATLSCRASQSVSSSRLAWFQQKSGQAPRLLIFDASSRATGIPDRFSGSGSGTDFTLTISRLEPEDFAVYYCQQYGSSPRTFGQGTKVEFKR
notes: Variant of A2A5C7E8 modified in VH CDR2 (X2 = K)
Consider B3, for which, in experiment [1], the EC50 amounted to 0.146 nM. In addition, in experiment [3], the IC50 is 0.546 nM.

B4: anti-Siglec15 benchmark (ch5G12) (antibody, human IgG1, kappa, V domains shown)
VH: QVQLQQPGAELVKPGASVKMSCKASGYTFTSYWITWVIQRPGQGLEWIGDIYCGSDTMHYNEKFKNKATLTVDTSSSTAYMQLSSLTSEDSAVYYCARWWDYGSSYDYFDYWGQGTTLTVSS
VL: DIKMTQSPSSMYASLGERVTITCKASQDINSYLSWFQQKPGKSPKTLIYRANRLVDGVPSRFSGSGSGQDYSLTISSLEYEDMGIYYCLQYDEFPYTFGGGTKLEIKR
notes: ch5G12 (US 20190202912A1); also called BM; Siglec15-ch5G9
For the molecule B4, the 50% effective concentration (EC50) in experiment [1] is 0.313 nM; in experiment [4] it was 11.6 nM. Also, the figures for the concentration for half-maximal inhibition (IC50) in experiment [2] and in experiment [3] were 0.751 nM and 0.674 nM, respectively.

B5: A1E10G7H9 (antibody, V domains shown)
VH: QVQLQESGPGLVKPSGTLSLTCAVSGGSISSSNWWHWVRQPPGKGLEWIGEIYHSGNTNYKPSLKSRVTISVDKSKNQFSLKLSSVTAADTAVYYCARDEGNGWSNAFDIWGQGTMVTVSS
VL: ENVLTQSPGTLSLSPGERVTLSCRASQSVSSSYLAWYQQKPGQAPRFLIYGASGGATGIPDRFSGSGSGTDFTLTISRLEPEDFAVYYCQQYGSSPITFGQGTRLEIK
notes: Fully human antibody from transgenic mouse hybridoma
In experiment [2], B5 returned an IC50 of 1.24 nM.

B6: B2D7H7A3C1 (antibody, V domains shown)
VH: QVQLQQSGAELVRPGTSVQMSCKAAGYTFTNYWIGWVKQRPGHGLEWVGDIHPGINYTNNNEKFRGKATLTADTSSNTAYMQLRGLTSDDSAIYYCARVDYDYDGSYIMDYWGQGTSVTVSS
VL: QIVLSQSPALLSASPGEKVTMTCRASSSVSYMYWYQQKPGSSPKPWIYATSNLTSGVPARFSGSGSGTSYSLTISRVEAEDAATYFCQQWNSKPWTFGGGSKLEIR
notes: Mouse monoclonal antibody from hybridoma; also called mouse B2D7H7A3C1
In turn, B6 returned an EC50 in experiment [4] of 0.998 nM.

B7: B2H2H1H7 (antibody, V domains shown)
VH: QVQLQQSGAELVRPGTSVQMSCKAAGYTFTNYWIGWVKQRPGHGLEWVGDIHPGINYTNNNEKFRGKATLTADTSSSTAYMQLRGLTSDDSAIYYCARVDYDYDGSYIMDYWGQGTSVTVSS
VL: QIILSQSPALLSASPGEKVTMTCRASSSVSYMYWYQQKPGSSPKPWIYATSNLTSGVPARFSGSGSGTSYSLTISRVEAEDAATYFCQQWNSKPWTFGGGSRLEIR
notes: Mouse monoclonal antibody from hybridoma; also called mouse B2H2H1H7; B2H2H1A7
For B7, in experiment [4], the EC50 stood at 1.91 nM.

B8: B2G12H3E8 (antibody, V domains shown)
VH: QVQLKQSGAELVRPGTSVQMSCKAVGYTFTNYWIGWVKQRPGHGLEWVGDIHPGINYTNNNEKFRGKATLTADTSSSTAYMQLRGLTSDDSAIYYCARVDYDYDGSYIMDYWGQGTSVTVSS
VL: QIVLSQSPALLSASPGEKVTMTCRASSSVSYMYWYQQKPGSSPKPWIYATSNLTSGVPARFSGSGSGTSYSLTISRVEAEDAATYFCQQWNSKPWTFGGGSKLEIR
notes: Mouse monoclonal antibody from hybridoma; also called mouse B2G12H3E8
For B8, it took 1.17 nM to reach a half-maximal effect in experiment [4] (EC50).
